Consider two compounds from article PMC10294659, “Cryo-EM Structures of the Klebsiella pneumoniae AcrB Multidrug Efflux Pump” (mBio, 2023).

For experiment [1], the target named is Klebsiella pneumoniae AcrB multidrug efflux pump (Klebsiella pneumoniae) (UniProt W9B4M6). Description: cryo-EM structure; single-particle cryo-EM of 10 uM KpAcrB in lipidic nanodiscs (MSP 1E3D1, E. coli total extract lipid; 20 mM Tris-HCl pH 7.5, 100 mM NaCl); apo, and after 2 h with 500 uM erythromycin.
Experiment [2] has as its target T1, KpAcrB (K. pneumoniae AcrB multidrug efflux pump) (Klebsiella pneumoniae, UniProt W9B4M6).
T1 construct: full-length, 1,048 residues (model 1-1033), N-terminal 6xHis tag, pET15b, expressed in E. coli BL21(DE3) delta-acrB; homotrimer; in DDM for MST, in MSP1E3D1 lipid nanodiscs for cryo-EM
The experiment is described as follows: microscale thermophoresis (label-free); cryo-EM structure of the complex also solved. The format is binding. On the technique in general: Microscale thermophoresis detects binding through changes in fluorescence in a small temperature gradient.

As a reminder, the stoichiometry N is the number of molecules, sites or subunits per partner or assembly. Regarding “Klebsiella pneumoniae AcrB multidrug efflux pump (from UniProt W9B4M6 1-1048) (natural protein)”, the stoichiometry N in experiment [1] is 3.
By Kd is commonly meant the concentration at which binding is half-saturated. Read a low Kd as higher affinity. Compound `CC[C@H]1OC(=O)[C@H](C)[C@@H](O[C@H]2C[C@@](C)(OC)[C@@H](O)[C@H](C)O2)[C@H](C)[C@@H](O[C@@H]2O[C@H](C)C[C@H](N(C)C)[C@H]2O)[C@](C)(O)C[C@@H](C)C(=O)[C@H](C)[C@@H](O)[C@]1(C)O` [erythromycin] displayed a Kd in experiment [2] of 14.4 ± 2.6 µM.
